Each block holds one binder with its values, some of them ahead of it. Square brackets hold non-standard residues; d marks the D form. Ends that are not written are not given here. 2Nal = N[C@@H](Cc1ccc2ccccc2c1)C(=O)O; d2Nal = N[C@H](Cc1ccc2ccccc2c1)C(=O)O
Target: T1, insulin-degrading enzyme (recombinant human IDE) (human, UniProt P14735 1-1019)
T1 construct: insulin-degrading enzyme, human, recombinant; source: recombinant, purified from bacteria [33]
Test: enzyme inhibition assay (Ki); recombinant human IDE (nominal 1 nM); dose-response of the hydrolysis of IDE substrates (FRET1, SP1, FAβB, 125I-insulin, or insulin by HTRF); the substrate used for the Ki values in the text is not stated
Settings: both partners purified

fold gain in potency (relative Ki) against Phe at P1': ~100 fold
B1: retro-inverso peptide hydroxamate Xaa-Arg-Tyr with 2-naphthylalanine (2-Nap) at P1' (peptide)
chain: [d2Nal]-[dR]-[dY]
modifications: also: retro-inverso backbone, hydroxamic acid next to P1', P1' said to be a β-amino acid

Ki: ~1.7 nM
Binder: [2Nal]RWE (also: N-terminal hydroxamic acid moiety, structure not given here) [Ii1 (IDE inhibitor 1), conventional peptide hydroxamate incorporating 2-Nap at the P1' position]
